Results published in patent US20230295335A1 (published 2023).

T1: recombinant human EpCAM (R&D systems, cat no 9277-EP) (human, UniProt P16422 24-265)
T1 construct: also called human EpCAM extracellular domain
T1 sequence: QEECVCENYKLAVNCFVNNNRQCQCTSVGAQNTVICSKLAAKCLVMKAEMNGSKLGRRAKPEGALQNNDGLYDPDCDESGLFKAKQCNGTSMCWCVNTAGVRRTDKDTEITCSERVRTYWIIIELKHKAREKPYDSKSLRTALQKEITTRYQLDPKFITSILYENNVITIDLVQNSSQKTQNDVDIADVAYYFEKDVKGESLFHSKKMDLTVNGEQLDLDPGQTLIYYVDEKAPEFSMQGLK

T2: full length mouse EpCAM on CHO-S cells (mouse, UniProt Q99JW5 24-315)
T2 sequence: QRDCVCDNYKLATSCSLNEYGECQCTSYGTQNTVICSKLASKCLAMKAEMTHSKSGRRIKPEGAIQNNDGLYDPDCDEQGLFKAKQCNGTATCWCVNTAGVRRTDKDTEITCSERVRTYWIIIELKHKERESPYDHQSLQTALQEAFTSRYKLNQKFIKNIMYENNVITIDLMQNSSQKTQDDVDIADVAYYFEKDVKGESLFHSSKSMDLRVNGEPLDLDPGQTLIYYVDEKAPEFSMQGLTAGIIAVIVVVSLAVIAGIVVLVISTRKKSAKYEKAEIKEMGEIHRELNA

T3: full length cynomolgus monkey EpCAM on CHO-S cells (cynomolgus monkey, UniProt Q1WER1 24-314 (rhesus entry))
T3 sequence: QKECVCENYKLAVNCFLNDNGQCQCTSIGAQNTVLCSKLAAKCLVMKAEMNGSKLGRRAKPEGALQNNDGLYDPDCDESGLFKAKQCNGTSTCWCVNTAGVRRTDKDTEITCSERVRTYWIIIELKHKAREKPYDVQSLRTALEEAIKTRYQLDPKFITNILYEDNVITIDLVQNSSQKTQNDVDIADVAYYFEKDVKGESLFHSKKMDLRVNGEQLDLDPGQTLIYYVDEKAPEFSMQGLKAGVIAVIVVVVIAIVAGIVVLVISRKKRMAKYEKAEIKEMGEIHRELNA


Columns and labels:
[1] = target: T1, recombinant human EpCAM (R&D systems, …); test: BLI classical sandwich cross-block; human EpCAM held by immobilized first antibody IgG1-EpCAM-A37-FEAR (competitor); second antibody 10 µg/mL in solution
Description: (§1) The theoretical molecular mass of human EpCAM based on the amino acid sequence (28 kDa) was used for calculations. The association (300 s) of a second EpCAM antibody (10 μg/mL in Sample Diluent) was determined. Data were acquired using Data Acquisition Software v12.0.1.8 (FortéBio) and analyzed with Data Analysis HT Software v12.0.1.55 (FortéBio). Data traces were corrected by subtraction of a reference curve (Sample Diluent instead of second antibody) in order to correct for the dissociation of human EpCAM from the immobilized first antibody. The Y-axis was aligned to the start of the association step and Savitzky-Golay filtering was applied. The corrected association responses of the second antibodies were plotted in a matrix format. […] By contrast, responses between −0.1 and 0.1 nm were considered to be blocking antibody pairs.

[2] = target: T1, recombinant human EpCAM (R&D systems, …); test: BLI classical sandwich cross-block; human EpCAM held by immobilized first antibody IgG1-EpCAM-C52-FEAR (competitor); second antibody 10 µg/mL in solution
Description: as §1

[3] = target: T1, recombinant human EpCAM (R&D systems, …); test: BLI classical sandwich cross-block; human EpCAM held by immobilized first antibody IgG1-EpCAM-323-A3-FEAR (competitor); second antibody 10 µg/mL in solution
Description: as §1

[4] = target: T1, recombinant human EpCAM (R&D systems, …); test: BLI classical sandwich cross-block; human EpCAM held by immobilized first antibody IgG1-EpCAM-UBS-54-FEAR (competitor); second antibody 10 µg/mL in solution
Description: as §1

[5] = target: T2, full length mouse EpCAM on CHO-S cells; test: flow cytometry on CHO-S cells transfected with mouse EpCAM
Description: (§2) Binding of EpCAM antibodies to CHO-S cells transiently transfected with full length human, cynomolgus monkey or mouse EpCAM was analyzed by flow cytometry. […] Cells were washed twice in FACS buffer, re-suspended in 20 μL FACS buffer supplemented with TO-PRO™-3 Iodide (diluted 1:20000; Invitrogen, cat. no. T3605) and analyzed on an iQue screener (Intellicyt Corporation, USA). Binding curves were analyzed by non-linear regression (sigmoidal dose-response with variable slope) using GraphPad Prism V8.4.1 software (GraphPad Software, San Diego, CA, USA).

[6] = target: T3, full length cynomolgus monkey EpCAM on …; test: flow cytometry on CHO-S cells transfected with cynomolgus monkey EpCAM
Description: as §2

Row | Binder | corrected association response of the antibody in solution [1] | corrected association response of the antibody in solution [2] | corrected association response of the antibody in solution [3] | corrected association response of the antibody in solution [4] | binding result [5] | binding result [6]
1 | IgG1-EpCAM-323-A3-FEAR (antibody, also called IgG1-323-A3-FEAR) heavy: QIQLVQSGPELKKPGETVKISCKASGYTFTNYGMNWVRQASGEGLKWMGWINTYTGEPTYGEDFKGRFAFSLETSASTAYLQINNLKNEDTATYFCARFGNYVDYWGQGTTLTVSSASTKGPSVFPLAPSSKSTSGGTAALGCLVKDYFPEPVTVSWNSGALTSGVHTFPAVLQSSGLYSLSSVVTVPSSSLGTQTYICNVNHKPSNTKVDKRVEPKSCDKTHTCPPCPAPEFEGGPSVFLFPPKPKDTLMISRTPEVTCVVVAVSHEDPEVKFNWYVDGVEVHNAKTKPREEQYNSTYRVVSVLTVLHQDWLNGKEYKCKVSNKALPAPIEKTISKAKGQPREPQVYTLPPSREEMTKNQVSLTCLVKGFYPSDIAVEWESNGQPENNYKTTPPVLDSDGSFFLYSRLTVDKSRWQQGNVFSCSVMHEALHNHYTQKSLSLSPG light: DIVMTQAAFSNPVTLGTSASISCRSSKNLLHSNGITYLYWYLQKPGQSPHLLIYQMSNLASGVPDRFSSSGSGTDFTLRISRVEAEDVGVYYCAQNLEIPRTFGGGTKLEIKRTVAAPSVFIFPPSDEQLKSGTASVVCLLNNFYPREAKVQWKVDNALQSGNSQESVTEQDSKDSTYSLSSTLTLSKADYEKHKVYACEVTHQGLSSPVTKSFNRGEC | -0.02 nm | -0.02 nm | 0 nm | -0.01 nm | – | –
2 | IgG1-EpCAM-323-A3 (antibody, Unmodified IgG1 constant region) heavy: not shown light: DIVMTQAAFSNPVTLGTSASISCRSSKNLLHSNGITYLYWYLQKPGQSPHLLIYQMSNLASGVPDRFSSSGSGTDFTLRISRVEAEDVGVYYCAQNLEIPRTFGGGTKLEIKRTVAAPSVFIFPPSDEQLKSGTASVVCLLNNFYPREAKVQWKVDNALQSGNSQESVTEQDSKDSTYSLSSTLTLSKADYEKHKVYACEVTHQGLSSPVTKSFNRGEC | – | – | – | – | binds | binds
3 | IgG1-EpCAM-A37-FEAR (antibody) heavy: not shown light: EIELTQSPGTLSLSPGERATLSCRASQTISNNYLAWYQQKRGQAPRLLIYAASSRATGIPDRFSGTGSGTDFTLTISRLEPEDFAVYYCAQGELYPRQFGGGTKLEIKRTVAAPSVFIFPPSDEQLKSGTASVVCLLNNFYPREAKVQWKVDNALQSGNSQESVTEQDSKDSTYSLSSTLTLSKADYEKHKVYACEVTHQGLSSPVTKSFNRGEC | -0.04 nm | 0 nm | -0.01 nm | 0 nm | binds | binds
4 | IgG1-EpCAM-C52-FEAR (antibody, V domains shown, The running text prints C52 as 052; also called IgG1-EpCAM-052-FEAR) VH: QVQLVQSGAEVKKPGASVKVSCKASGGTFSSYAISWVRQAPGQGLEWMGGIVPIFGTANYAQKFQGRVTITADESTSTAYMELSSLRSEDTAVYYCARDPFLHYWGQGTLVTVSS VL: EIELTQSPGTLSLSPGERATLSCRASQSVSSSYLAWYQQKPGQAPRLLIYGASSRATGIPDRFSGSGSGTDFTLTISRLEPEDFAVYYCAQGELYPRQFGGGTKLDIKR | -0.03 nm | -0.02 nm | -0.01 nm | 0 nm | binds | binds
5 | IgG1-EpCAM-UBS-54-FEAR (antibody, V domains shown) VH: QVQLVQSGAEVKKPGSSVRVSCKASGGTFSSYAISWVRQAPGQGLEWMGGIIPIFGTANYAQKFQGRVTITADESTSTAYMELSSLRSEDTAVYYCARDPFLHYWGQGTLVTVSS VL: not shown | -0.03 nm | -0.01 nm | 0 nm | -0.02 nm | binds | binds
